Results from patent publication US20200216495A1 (ADRX, published 2020).
Values joined by “and” are separate entries in the source; they are usually repeats but may differ in a detail not shown here. Identical values can stand only once. Square brackets hold non-standard residues; d marks the D form. Ends that are not written are not given here.

B1: rlrirw (PEPTIDE ID NO: 27) (peptide)
peptide: [dR][dL][dR][dI][dR][dW]
B2: whlrirw (PEPTIDE ID NO: 19) (peptide)
peptide: [dW][dH][dL][dR][dI][dR][dW]
B3: wrlkvrwe (PEPTIDE ID NO: 275) (peptide)
peptide: [dW][dR][dL][dK][dV][dR][dW][dE]
B4: lkvrwwwr (PEPTIDE ID NO: 199) (peptide)
peptide: [dL][dK][dV][dR][dW][dW][dW][dR]
B5: frlklrfh (PEPTIDE ID NO: 426) (peptide)
peptide: [dF][dR][dL][dK][dL][dR][dF][dH]
B6: wrlkvqw (PEPTIDE ID NO: 281) (peptide)
peptide: [dW][dR][dL][dK][dV][dQ][dW]
B7: klklrwf (PEPTIDE ID NO: 438) (peptide)
peptide: [dK][dL][dK][dL][dR][dW][dF]
B8: wrlrlrw (PEPTIDE ID NO: 200) (peptide)
peptide: [dW][dR][dL][dR][dL][dR][dW]
B9: fkihikhy (PEPTIDE ID NO: 127) (peptide)
peptide: [dF][dK][dI][dH][dI][dK][dH][dY]
B10: wnlkvrw (PEPTIDE ID NO: 294) (peptide)
peptide: [dW][dN][dL][dK][dV][dR][dW]
B11: wrlkvrrw (PEPTIDE ID NO: 278) (peptide)
peptide: [dW][dR][dL][dK][dV][dR][dR][dW]
B12: lkihihyh (PEPTIDE ID NO: 295) (peptide)
peptide: [dL][dK][dI][dH][dI][dH][dY][dH]
B13: lhiklrwh (PEPTIDE ID NO: 151) (peptide)
peptide: [dL][dH][dI][dK][dL][dR][dW][dH]
B14: wrlkvrew (PEPTIDE ID NO: 284) (peptide)
peptide: [dW][dR][dL][dK][dV][dR][dE][dW]
B15: fkiklkw (PEPTIDE ID NO: 35) (peptide)
peptide: [dF][dK][dI][dK][dL][dK][dW]
B16: lrlhlrhw (PEPTIDE ID NO: 149) (peptide)
peptide: [dL][dR][dL][dH][dL][dR][dH][dW]
B17: wkvkiqyh (PEPTIDE ID NO: 100) (peptide)
peptide: [dW][dK][dV][dK][dI][dQ][dY][dH]
B18: fkikikw (PEPTIDE ID NO: 60) (peptide)
peptide: [dF][dK][dI][dK][dI][dK][dW]
modifications: not fully specified; printed as fkikikw
B19: wrlqvrw (PEPTIDE ID NO: 280) (peptide)
peptide: [dW][dR][dL][dQ][dV][dR][dW]
B20: wkvwvryw (PEPTIDE ID NO: 92) (peptide)
peptide: [dW][dK][dV][dW][dV][dR][dY][dW]
B21: wrtkvrw (PEPTIDE ID NO: 276) (peptide)
peptide: [dW][dR][dT][dK][dV][dR][dW]
B22: lkiqihy (PEPTIDE ID NO: 285) (peptide)
peptide: [dL][dK][dI][dQ][dI][dH][dY]
B23: kvrwwlrw (PEPTIDE ID NO: 201) (peptide)
peptide: [dK][dV][dR][dW][dW][dL][dR][dW]
B24: lhirlrhw (PEPTIDE ID NO: 153) (peptide)
peptide: [dL][dH][dI][dR][dL][dR][dH][dW]
B25: wfkiklel (PEPTIDE ID NO: 110) (peptide)
peptide: [dW][dF][dK][dI][dK][dL][dE][dL]
B26: wkvnvrlw (PEPTIDE ID NO: 95) (peptide)
peptide: [dW][dK][dV][dN][dV][dR][dL][dW]
B27: rrlrihw (PEPTIDE ID NO: 290) (peptide)
peptide: [dR][dR][dL][dR][dI][dH][dW]
B28: lkiriyy (PEPTIDE ID NO: 277) (peptide)
peptide: [dL][dK][dI][dR][dI][dY][dY]
B29: fklhirhw (PEPTIDE ID NO: 128) (peptide)
peptide: [dF][dK][dL][dH][dI][dR][dH][dW]
B30: lwrlkvrw (PEPTIDE ID NO: 202) (peptide)
peptide: [dL][dW][dR][dL][dK][dV][dR][dW]
B31: wrlkvrww (PEPTIDE ID NO: 3) (peptide)
peptide: [dW][dR][dL][dK][dV][dR][dW][dW]
B32: wrlkvrw (PEPTIDE ID NO: 289) (peptide)
peptide: [dW][dR][dL][dK][dV][dR][dW]
B33: eirlhw (PEPTIDE ID NO: 74) (peptide)
peptide: [dE][dI][dR][dL][dH][dW]
B34: lrlrikhf (PEPTIDE ID NO: 150) (peptide)
peptide: [dL][dR][dL][dR][dI][dK][dH][dF]
B35: rtlkivwr (PEPTIDE ID NO: 22) (peptide)
peptide: [dR][dT][dL][dK][dI][dV][dW][dR]
B36: wrlevrww (PEPTIDE ID NO: 288) (peptide)
peptide: [dW][dR][dL][dE][dV][dR][dW][dW]
B37: rrlkvrwr (PEPTIDE ID NO: 439) (peptide)
peptide: [dR][dR][dL][dK][dV][dR][dW][dR]
B38: lkirihyr (PEPTIDE ID NO: 291) (peptide)
peptide: [dL][dK][dI][dR][dI][dH][dY][dR]
B39: wrlhvrww (PEPTIDE ID NO: 292) (peptide)
peptide: [dW][dR][dL][dH][dV][dR][dW][dW]
B40: wkvqvrw (PEPTIDE ID NO: 89) (peptide)
peptide: [dW][dK][dV][dQ][dV][dR][dW]
B41: wkvkfqhw (PEPTIDE ID NO: 94) (peptide)
peptide: [dW][dK][dV][dK][dF][dQ][dH][dW]
B42: wrvqvrw (PEPTIDE ID NO: 102) (peptide)
peptide: [dW][dR][dV][dQ][dV][dR][dW]
B43: tkirihy (PEPTIDE ID NO: 283) (peptide)
peptide: [dT][dK][dI][dR][dI][dH][dY]

biological target: Tau40 P301L protein (human); test: cell-based or functional assay

IC50, Tau40 assay (ThT)	Binder
1610 nM	B1
1540 nM and 1630 nM	B2
1520 nM	B3
700 nM	B4
1770 nM	B5
1620 nM	B6
1670 nM	B7
700 nM	B8
1650 nM and 1790 nM	B9
1820 nM	B10
1580 nM	B11
1850 nM	B12
1650 nM and 1830 nM	B13
1640 nM	B14
1740 nM and 1840 nM	B15
1640 nM and 2060 nM	B16
1560 nM and 1610 nM	B17
1570 nM and 1650 nM	B18
1600 nM	B19
700 nM and 810 nM	B20
1560 nM	B21
1640 nM	B22

IC50, Tau40 assay (ThT)	Binder
710 nM	B23
1840 nM and 1880 nM	B24
1770 nM and 2530 nM	B25
1670 nM and 1710 nM	B26
1790 nM	B27
1570 nM	B28
1710 nM and 1760 nM	B29
720 nM	B30
1610 nM and 750 nM	B31
1770 nM	B32
1540 nM	B33
1780 nM and 2430 nM	B34
1670 nM	B35
1720 nM	B36
1680 nM	B37
1810 nM	B38
1820 nM	B39
1730 nM and 1760 nM	B40
1690 nM	B41
1540 nM and 1570 nM	B42
1630 nM	B43
